{"source": "patent US20030124505", "biological_target": "RecA recombinase (UniProt P0A7G6)", "sequence (P0A7G6 2-353)": "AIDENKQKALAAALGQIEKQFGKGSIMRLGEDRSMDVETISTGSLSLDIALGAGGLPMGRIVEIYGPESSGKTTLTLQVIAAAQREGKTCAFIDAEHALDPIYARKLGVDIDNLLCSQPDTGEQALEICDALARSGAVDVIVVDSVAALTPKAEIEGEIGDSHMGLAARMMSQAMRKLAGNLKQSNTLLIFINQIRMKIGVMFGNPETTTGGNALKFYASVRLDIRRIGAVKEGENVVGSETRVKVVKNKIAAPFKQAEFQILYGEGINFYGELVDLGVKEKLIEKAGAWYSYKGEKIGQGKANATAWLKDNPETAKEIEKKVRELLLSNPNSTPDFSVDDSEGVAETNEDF", "conditions": "second round manual capture from 1:10,000 pHPRT:pUC library; automated 59%; first round 2% and 1.35%"}
{"substance": "318 bp biotinylated HPRT cssDNA probe (primers hExo3-2A and h/m300B)", "values": [{"measurement": "activity (% pHPRT clones)", "result": 76}]}
